# Measurements from US20220119492A1 (MEDIKINE, published 2022).
# Bridge positions count the residues as written; N and C are the ends. Ends that are not written are not given here.
# Target: T1, human IL-2Rβ (CD122 protein, Fc Tag) (27-239) (human, UniProt P14784 27-239)
# T1 construct: range 27-239; Bought protein; also called hu-IL-2Rβ subunit; IL-2Rβ subunit; not shown: Fc tag of the bought protein
# T1 sequence (looked up): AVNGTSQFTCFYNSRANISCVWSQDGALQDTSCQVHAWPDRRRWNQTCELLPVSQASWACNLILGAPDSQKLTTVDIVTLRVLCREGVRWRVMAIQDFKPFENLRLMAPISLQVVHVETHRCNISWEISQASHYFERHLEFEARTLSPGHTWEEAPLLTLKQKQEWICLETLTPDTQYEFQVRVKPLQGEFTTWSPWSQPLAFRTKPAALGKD
# Assay: phage ELISA competition
# Method in brief: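 Values are IC50s derived from absorbance in a competitive binding ELISA, where a phage tracer competes with test ligands for human IL-2Rβ-Fc across a ligand dilution series. After 50 μL of phage tracer was added without washing for 45 min at 4° C, bound phage was detected with TMB for 1 to 15 min at 25° C. The reaction was then stopped and absorbance read at 450 nm.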
row,Binder,IC50 [µM]
1,MNPVGTFYPCWIAKLGELCDLQ [SEQ ID NO 2687],< 100
2,WYPCWLAQLGELCDLD [SEQ ID NO 2691],< 100
3,WYPCWLAQVGELCDLD [SEQ ID NO 2885],< 100
4,VWFPCWFAQLGDLCDLDQDP (disulfide 5-14 (inferred)) [SEQ ID NO 2678],< 100
5,RPSWAPCWLAQVGELCDLDHPE [SEQ ID NO 2693],< 100
6,WYSCWIAQIGELCDLE [SEQ ID NO 2686],< 100
7,WYPCWIAQLGELCDLV [SEQ ID NO 2682],< 100
8,RSLRESWFPCWMAKLGDLCDLE [SEQ ID NO 2695],< 100
9,WLPCWMAHLGDLCDLE [SEQ ID NO 2692],< 100
10,WYSCWIAQLGELCDLDDMGDRV [SEQ ID NO 2680],< 100
11,SRSAGEYYPCWLAQLGELCDLA [SEQ ID NO 2697],< 100
12,EQRNRQWWPCWLARLGDLCDLD [SEQ ID NO 2690],< 100
13,WYPCWMAQLGELCDLDEAPVQP [SEQ ID NO 2701],< 100
14,WFPCWLAQLGELCDKE [SEQ ID NO 2681],< 100
15,ETLGSVWYPCWIASIGELCDLD [SEQ ID NO 2679],< 100
16,SHLWFPCWMAQLGELCDLEGGP [SEQ ID NO 2683],< 100
17,WYPCSIALLGELCDLESVHEKS [SEQ ID NO 2689],< 100
18,YWCWFARVGELCDLDDGGVPS [SEQ ID NO 2685],< 100
19,RDIWWPCWVAQLGELCDLDDPQ [SEQ ID NO 2702],< 100
20,RRWLPCWMAHVGELCDLELGN [SEQ ID NO 2684],< 100
21,HGGVIGWYPCWMAKVGELCDLD [SEQ ID NO 2688],< 100
22,RQVPKQWYPCWMAALGELCDLE (disulfide 10-19 (inferred)) [SEQ ID NO 2698],< 100
23,WYPCWLAKLGELCDLDRAEALP [SEQ ID NO 2677],< 100
24,WHPCWLARVGDLCDLD [SEQ ID NO 2696],< 100
25,SATWYPCFLANLGELCDLEQEN [SEQ ID NO 2703],< 100
26,QVMRLWYPCWMAQLGELCDLE [SEQ ID NO 2700],< 100
27,ESKEPAFWPCWMAQLGDLCDLE [SEQ ID NO 2694],< 100
